B1: 12795B scFv (VH-VK) (scFv)
chain: EVQLVESGGGLVQPGGSLRLSCATSGFTFTSYDMKWVRQAPGLGLEWVSAISGSGGNTYYADSVKGRFTISRDNSRNTLYLQMNSLRAEDTAVYYCTRSHDFGAFDYFDYWGQGTLVTVSSDIQMTQSPSSLSASVGDRVTITCRASQGIRDHFGWYQQKPGKAPKRLIYAASSLHSGVPSRFSGSGSGTEFTLTISSLQPEDFATYYCLQYDTYPLTFGGGTKVEIK
B2: 12799B scFv (VK-VH) (scFv)
scFv: DIQMTQSPSSVSASVGDRVTITCRASQGIASWLAWYQQKPGKAPELLIYAASSLQGGVPSRFSGSGSGTDFTLTISSLQPEDFAIYYCQQANYFPWTFGQGTKVEIKGGGGSGGGGSGGGGSQITLKESGPTLVKPTQTLTLTCTFSGFSLSTSGVGVVWIRQPPGKALEWLALIYWNDHKRYSPSLGSRLTITKDTSKNQVVLTMTNMDPVDTATYYCAHYSGSYSYYYYGLDVWGQGTTVTVSS
notes: CHO supernatant; Vk-3xG4S-Vh
B3: 12795B scFv (VK-VH) (scFv)
scFv: DIQMTQSPSSLSASVGDRVTITCRASQGIRDHFGWYQQKPGKAPKRLIYAASSLHSGVPSRFSGSGSGTEFTLTISSLQPEDFATYYCLQYDTYPLTFGGGTKVEIKGGGGSGGGGSGGGGSEVQLVESGGGLVQPGGSLRLSCATSGFTFTSYDMKWVRQAPGLGLEWVSAISGSGGNTYYADSVKGRFTISRDNSRNTLYLQMNSLRAEDTAVYYCTRSHDFGAFDYFDYWGQGTLVTVSS
notes: CHO supernatant; Vk-3xG4S-Vh
B4: 12798B Fab (Fab, V domains shown)
VH: EVQLVESGGDLVQPGRSLRLSCAASGFTFDDYAMHWVRQAPGKGLEWVSGISWNSATRVYADSVKGRFTISRDNAKNFLYLQMNSLRSEDTALYHCAKDMDISLGYYGLDVWGQGTTVTVSS
VL: not shown
notes: CHO supernatant
B5: 12799B Fab (Fab, V domains shown)
VH: QITLKESGPTLVKPTQTLTLTCTFSGFSLSTSGVGVVWIRQPPGKALEWLALIYWNDHKRYSPSLGSRLTITKDTSKNQVVLTMTNMDPVDTATYYCAHYSGSYSYYYYGLDVWGQGTTVTVSS
VL: DIQMTQSPSSVSASVGDRVTITCRASQGIASWLAWYQQKPGKAPELLIYAASSLQGGVPSRFSGSGSGTDFTLTISSLQPEDFAIYYCQQANYFPWTFGQGTKVEIKR
notes: CHO supernatant
B6: 12795B Fab (Fab, V domains shown)
VH: EVQLVESGGGLVQPGGSLRLSCATSGFTFTSYDMKWVRQAPGLGLEWVSAISGSGGNTYYADSVKGRFTISRDNSRNTLYLQMNSLRAEDTAVYYCTRSHDFGAFDYFDYWGQGTLVTVSS
VL: DIQMTQSPSSLSASVGDRVTITCRASQGIRDHFGWYQQKPGKAPKRLIYAASSLHSGVPSRFSGSGSGTEFTLTISSLQPEDFATYYCLQYDTYPLTFGGGTKVEIKR
notes: CHO supernatant
B7: 12798B scFv (VH-VK) (scFv)
scFv: EVQLVESGGDLVQPGRSLRLSCAASGFTFDDYAMHWVRQAPGKGLEWVSGISWNSATRVYADSVKGRFTISRDNAKNFLYLQMNSLRSEDTALYHCAKDMDISLGYYGLDVWGQGTTVTVSSGGGGSGGGGSGGGGSEIVMTQSPATLSVSPGERATLSCRASQTVSSNLAWYQQKPGQAPRLLIYGSSSRATGIPARFSGSGSGTEFTLTISSLQSEDFAVYYCQQYNNWPPYTFGQGTKLEIK
notes: CHO supernatant
B8: 12798B scFv (VK-VH) (scFv)
scFv: EIVMTQSPATLSVSPGERATLSCRASQTVSSNLAWYQQKPGQAPRLLIYGSSSRATGIPARFSGSGSGTEFTLTISSLQSEDFAVYYCQQYNNWPPYTFGQGTKLEIKGGGGSGGGGSGGGGSEVQLVESGGDLVQPGRSLRLSCAASGFTFDDYAMHWVRQAPGKGLEWVSGISWNSATRVYADSVKGRFTISRDNAKNFLYLQMNSLRSEDTALYHCAKDMDISLGYYGLDVWGQGTTVTVSS
notes: CHO supernatant; Vk-3xG4S-Vh

Target: T1, Hmm-hTFRC (REGN2431), monomeric human transferrin receptor ectodomain with N-terminal hexahistidine-myc-myc … (human, UniProt P02786 89-760)
T1 construct: also called hmm.hTfR(C89-F763); His-myc-myc-hTFRC ecto
T1 sequence (P02786 other isoform, or with tags, fused parts or gaps): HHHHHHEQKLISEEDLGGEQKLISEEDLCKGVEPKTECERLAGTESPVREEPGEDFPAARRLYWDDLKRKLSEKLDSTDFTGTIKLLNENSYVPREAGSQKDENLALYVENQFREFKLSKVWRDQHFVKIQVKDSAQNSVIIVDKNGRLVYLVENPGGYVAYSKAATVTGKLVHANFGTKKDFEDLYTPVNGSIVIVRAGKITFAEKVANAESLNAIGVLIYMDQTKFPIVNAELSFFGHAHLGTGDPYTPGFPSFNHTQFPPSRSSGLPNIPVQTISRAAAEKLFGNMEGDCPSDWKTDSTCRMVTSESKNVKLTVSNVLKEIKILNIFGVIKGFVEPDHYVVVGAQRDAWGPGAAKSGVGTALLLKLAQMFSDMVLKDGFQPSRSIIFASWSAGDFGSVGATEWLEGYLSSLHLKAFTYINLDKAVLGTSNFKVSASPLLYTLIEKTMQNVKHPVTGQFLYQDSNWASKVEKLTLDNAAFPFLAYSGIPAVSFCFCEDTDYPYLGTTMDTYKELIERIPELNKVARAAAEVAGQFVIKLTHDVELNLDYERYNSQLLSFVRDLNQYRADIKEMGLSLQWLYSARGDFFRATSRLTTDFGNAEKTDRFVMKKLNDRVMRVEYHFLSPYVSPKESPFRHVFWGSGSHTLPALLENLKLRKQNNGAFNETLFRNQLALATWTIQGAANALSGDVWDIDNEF
Test: blocking ELISA, supernatant; Hmm-hTFRC binding to immobilized human holo-Tf
Experimental: In the blocking assay, the anti-human Transferrin goat IgG polyclonal antibody (anti-hTf pAb) was passively absorbed at a concentration of 2 micrograms/mL in PBS on a 96-well microtiter plate overnight at 4° C. […] To the same plate, human holo-Tf was then added at a concentration of 1 micrograms/mL in PBS+0.5% BSA for 2 hours at room temperature. […] After a 1-hour incubation, the mixtures were transferred to the human holo-Tf microtiter plates. […] The plates were developed using TMB substrate solution according to the manufacturer's recommended procedure and absorbance at 450 nm was measured on a Victor™ Multilabel Plate Reader.
The ability of the anti-TfR antibody to block human TFRC binding to human holo-Tf was evaluated using an ELISA-based blocking assay.

Row | % Blocking | Binder
1 | 45% | B1
2 | 10% | B2
3 | 23% | B3
4 | 10% | B4
5 | 5% | B5
6 | 44% | B6
7 | 0% | B7
8 | 10% | B8

Reference: patent US20250049896A1 (Regeneron, published 2025)
